Test results: paper PMC10164591, “RNA binding proteins Smaug and Cup induce CCR4–NOT-dependent deadenylation of the nanos mRNA in a reconstituted system”

Assays:
His8-MBP-Cup C = molecular target: T1, His8-MBP-Cup C (Drosophila melanogaster, UniProt Q9VMA3 771-1117); assay: UV crosslinking + Ni-NTA pull-down; 6 M urea wash; UV crosslinking: 16 mM HEPES pH 7.6, 50 mM K acetate, 1 mM Mg acetate, 0.8 mM ATP, 0.24 mg/ml yeast tRNA, 1 mM DTT, 10% glycerol, room temp; EMSA: deadenylation buffer with tRNA (omitted for A70 PABPC), 5% glycerol, 25 C; details: protein: recombinant; tags: N-terminal His8-MBP; label: 5'-32P
T1 sequence: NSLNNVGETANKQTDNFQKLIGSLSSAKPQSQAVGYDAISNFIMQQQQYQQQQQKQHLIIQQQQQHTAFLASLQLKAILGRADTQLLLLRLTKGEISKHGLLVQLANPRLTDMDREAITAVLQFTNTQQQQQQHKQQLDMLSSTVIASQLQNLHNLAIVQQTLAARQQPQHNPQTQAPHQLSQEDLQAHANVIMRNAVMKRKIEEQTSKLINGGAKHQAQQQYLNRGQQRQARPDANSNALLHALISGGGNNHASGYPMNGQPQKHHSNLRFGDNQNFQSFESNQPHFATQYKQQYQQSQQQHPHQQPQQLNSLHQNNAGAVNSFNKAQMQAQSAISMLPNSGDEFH

His8-MBP-Cup full length = molecular target: T2, His8-MBP-Cup full length (Drosophila melanogaster, UniProt Q9VMA3 1-1117); assay: as above; details: protein: recombinant; tags: N-terminal His8-MBP; label: 5'-32P
T2 sequence: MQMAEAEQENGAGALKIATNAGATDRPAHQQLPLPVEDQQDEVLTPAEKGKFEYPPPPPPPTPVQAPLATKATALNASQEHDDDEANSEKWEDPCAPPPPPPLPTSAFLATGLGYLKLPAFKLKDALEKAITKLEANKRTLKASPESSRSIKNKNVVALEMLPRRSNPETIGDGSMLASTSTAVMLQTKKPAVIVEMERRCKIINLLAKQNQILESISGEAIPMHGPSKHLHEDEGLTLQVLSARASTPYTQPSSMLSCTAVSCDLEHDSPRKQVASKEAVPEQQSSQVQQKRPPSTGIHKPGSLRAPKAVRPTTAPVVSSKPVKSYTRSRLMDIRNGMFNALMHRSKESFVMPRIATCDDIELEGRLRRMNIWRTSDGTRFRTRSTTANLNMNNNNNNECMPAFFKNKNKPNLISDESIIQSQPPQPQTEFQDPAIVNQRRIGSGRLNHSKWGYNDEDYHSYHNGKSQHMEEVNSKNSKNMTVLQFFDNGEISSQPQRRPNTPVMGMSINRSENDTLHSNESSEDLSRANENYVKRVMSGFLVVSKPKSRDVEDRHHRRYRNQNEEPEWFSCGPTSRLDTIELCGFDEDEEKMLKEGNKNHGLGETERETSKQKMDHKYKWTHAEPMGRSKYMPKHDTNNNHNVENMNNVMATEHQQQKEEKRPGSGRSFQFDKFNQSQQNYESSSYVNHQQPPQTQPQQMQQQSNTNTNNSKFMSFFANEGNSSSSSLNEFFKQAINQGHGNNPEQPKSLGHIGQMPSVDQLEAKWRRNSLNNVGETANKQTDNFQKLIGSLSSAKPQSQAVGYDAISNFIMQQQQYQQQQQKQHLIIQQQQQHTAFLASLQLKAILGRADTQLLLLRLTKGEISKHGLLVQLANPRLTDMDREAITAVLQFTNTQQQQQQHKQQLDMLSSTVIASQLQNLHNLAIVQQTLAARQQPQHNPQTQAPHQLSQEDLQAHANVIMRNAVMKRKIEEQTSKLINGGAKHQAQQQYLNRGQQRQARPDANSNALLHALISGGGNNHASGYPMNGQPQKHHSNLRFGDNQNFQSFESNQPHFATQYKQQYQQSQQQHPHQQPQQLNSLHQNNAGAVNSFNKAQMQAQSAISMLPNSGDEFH

His8-MBP-Cup M = molecular target: T3, His8-MBP-Cup M (Drosophila melanogaster, UniProt Q9VMA3 418-770); assay: as above; details: protein: recombinant; tags: N-terminal His8-MBP; label: 5'-32P
T3 sequence: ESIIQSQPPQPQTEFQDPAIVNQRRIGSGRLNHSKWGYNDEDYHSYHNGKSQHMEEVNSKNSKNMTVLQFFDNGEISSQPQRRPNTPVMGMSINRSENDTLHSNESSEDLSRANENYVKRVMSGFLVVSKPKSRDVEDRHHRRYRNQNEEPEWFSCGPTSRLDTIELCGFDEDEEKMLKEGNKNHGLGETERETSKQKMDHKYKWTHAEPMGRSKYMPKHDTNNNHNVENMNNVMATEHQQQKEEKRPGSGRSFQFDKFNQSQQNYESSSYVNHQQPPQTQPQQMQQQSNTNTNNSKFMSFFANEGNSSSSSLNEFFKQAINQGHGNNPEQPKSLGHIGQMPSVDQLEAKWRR

His8-MBP-Cup MC = molecular target: T4, His8-MBP-Cup MC (Drosophila melanogaster, UniProt Q9VMA3 418-1117); assay: as above; details: protein: recombinant; tags: N-terminal His8-MBP; label: 5'-32P
T4 sequence: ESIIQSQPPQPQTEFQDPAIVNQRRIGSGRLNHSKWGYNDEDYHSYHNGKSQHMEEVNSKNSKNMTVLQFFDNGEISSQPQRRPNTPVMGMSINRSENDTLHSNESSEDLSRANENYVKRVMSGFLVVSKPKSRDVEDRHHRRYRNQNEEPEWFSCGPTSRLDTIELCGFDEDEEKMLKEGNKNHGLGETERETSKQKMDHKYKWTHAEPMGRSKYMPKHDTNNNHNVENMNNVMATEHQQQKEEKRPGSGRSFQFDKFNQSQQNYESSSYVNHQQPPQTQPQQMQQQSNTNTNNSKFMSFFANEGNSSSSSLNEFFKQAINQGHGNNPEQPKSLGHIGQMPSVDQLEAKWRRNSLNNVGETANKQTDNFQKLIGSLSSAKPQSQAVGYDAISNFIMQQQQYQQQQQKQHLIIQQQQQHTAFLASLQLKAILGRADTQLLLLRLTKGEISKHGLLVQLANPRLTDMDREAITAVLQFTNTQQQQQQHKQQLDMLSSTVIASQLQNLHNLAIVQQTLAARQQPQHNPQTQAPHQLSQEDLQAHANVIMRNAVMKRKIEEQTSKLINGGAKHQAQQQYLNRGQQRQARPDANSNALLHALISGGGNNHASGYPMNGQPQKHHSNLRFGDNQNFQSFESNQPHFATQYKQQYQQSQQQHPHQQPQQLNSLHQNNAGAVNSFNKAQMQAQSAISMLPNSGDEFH

MBP-Cup M = molecular target: T5, MBP-Cup M (Drosophila melanogaster, UniProt Q9VMA3 418-770); assay: UV crosslinking; UV crosslinking: 16 mM HEPES pH 7.6, 50 mM K acetate, 1 mM Mg acetate, 0.8 mM ATP, 0.24 mg/ml yeast tRNA, 1 mM DTT, 10% glycerol, room temp; EMSA: deadenylation buffer with tRNA (omitted for A70 PABPC), 5% glycerol, 25 C; details: protein: recombinant; tags: N-terminal MBP; label: 5'-32P
T5 sequence: T3 sequence

MBP-Cup NM = molecular target: T6, MBP-Cup NM (Drosophila melanogaster, UniProt Q9VMA3 1-770); assay: as above; details: protein: recombinant; tags: N-terminal MBP; label: 5'-32P
T6 sequence: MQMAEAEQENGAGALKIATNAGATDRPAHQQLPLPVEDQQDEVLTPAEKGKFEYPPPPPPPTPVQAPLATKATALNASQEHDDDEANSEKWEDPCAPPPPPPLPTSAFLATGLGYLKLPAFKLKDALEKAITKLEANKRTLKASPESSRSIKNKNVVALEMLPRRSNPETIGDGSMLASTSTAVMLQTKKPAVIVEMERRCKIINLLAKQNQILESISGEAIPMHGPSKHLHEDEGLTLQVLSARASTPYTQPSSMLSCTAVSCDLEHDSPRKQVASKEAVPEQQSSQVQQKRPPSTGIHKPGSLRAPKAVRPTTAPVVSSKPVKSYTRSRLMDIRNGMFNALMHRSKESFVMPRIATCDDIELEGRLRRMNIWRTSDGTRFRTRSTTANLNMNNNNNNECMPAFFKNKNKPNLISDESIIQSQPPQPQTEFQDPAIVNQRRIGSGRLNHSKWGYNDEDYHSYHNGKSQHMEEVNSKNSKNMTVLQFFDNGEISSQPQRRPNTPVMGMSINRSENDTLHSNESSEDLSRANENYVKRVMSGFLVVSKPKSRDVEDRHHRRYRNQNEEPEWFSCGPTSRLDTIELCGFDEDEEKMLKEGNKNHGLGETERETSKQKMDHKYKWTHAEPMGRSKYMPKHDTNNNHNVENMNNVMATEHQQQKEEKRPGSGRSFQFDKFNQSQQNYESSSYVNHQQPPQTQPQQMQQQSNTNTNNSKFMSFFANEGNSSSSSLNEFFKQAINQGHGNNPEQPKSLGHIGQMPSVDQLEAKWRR

MBP-Cup MC = molecular target: T7, MBP-Cup MC (Drosophila melanogaster, UniProt Q9VMA3 418-1117); assay: as above; details: protein: recombinant; tags: N-terminal MBP; label: 5'-32P
T7 sequence: T4 sequence

MBP-Cup C = molecular target: T8, MBP-Cup C (Drosophila melanogaster, UniProt Q9VMA3 771-1117); assay: as above; details: protein: recombinant; tags: N-terminal MBP; label: 5'-32P
T8 sequence: T1 sequence

MBP-Cup N = molecular target: T9, MBP-Cup N (Drosophila melanogaster, UniProt Q9VMA3 1-417); assay: as above; details: protein: recombinant; tags: N-terminal MBP; label: 5'-32P
T9 sequence: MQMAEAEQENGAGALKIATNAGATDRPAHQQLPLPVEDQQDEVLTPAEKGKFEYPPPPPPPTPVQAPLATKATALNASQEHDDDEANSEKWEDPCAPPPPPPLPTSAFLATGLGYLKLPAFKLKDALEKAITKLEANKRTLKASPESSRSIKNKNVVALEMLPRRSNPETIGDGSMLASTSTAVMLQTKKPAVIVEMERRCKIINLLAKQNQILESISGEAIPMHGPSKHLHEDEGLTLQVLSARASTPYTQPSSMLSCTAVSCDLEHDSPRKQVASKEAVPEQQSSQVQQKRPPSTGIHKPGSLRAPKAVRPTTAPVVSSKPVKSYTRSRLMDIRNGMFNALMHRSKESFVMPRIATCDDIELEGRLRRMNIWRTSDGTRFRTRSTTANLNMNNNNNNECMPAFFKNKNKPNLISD

Measured: binding result

GGGUUUAGUGCGCACGUG (ssRNA) [18nt RNA oligonucleotide]
binds: all assays above
